B1: Reaper: wild type Drosophila IAP inhibitor (IAPi) protein REAPER (RPR) (protein)
chain: MAVAFYIPDQATLLREAEQKEQQILRLRESQWRFLATVVLETLRQYTSCHPKTGRKSGKYRKPSQ

What was measured:
human XIAP = biological target: T1, human XIAP (Homo sapiens, UniProt P98170); assay: In vitro ubiquitination / self-conjugation reaction with 35S-labeled XIAP; format: biochemical; conditions: 35S-XIAP; FIG. 8, 15B, 16, 17
T1 construct: host or cells: cell-free in vitro transcription-translation; the partner His-UBCH5C was made in E. coli BL21 (pLysS)
T1 sequence (P98170 whole entry): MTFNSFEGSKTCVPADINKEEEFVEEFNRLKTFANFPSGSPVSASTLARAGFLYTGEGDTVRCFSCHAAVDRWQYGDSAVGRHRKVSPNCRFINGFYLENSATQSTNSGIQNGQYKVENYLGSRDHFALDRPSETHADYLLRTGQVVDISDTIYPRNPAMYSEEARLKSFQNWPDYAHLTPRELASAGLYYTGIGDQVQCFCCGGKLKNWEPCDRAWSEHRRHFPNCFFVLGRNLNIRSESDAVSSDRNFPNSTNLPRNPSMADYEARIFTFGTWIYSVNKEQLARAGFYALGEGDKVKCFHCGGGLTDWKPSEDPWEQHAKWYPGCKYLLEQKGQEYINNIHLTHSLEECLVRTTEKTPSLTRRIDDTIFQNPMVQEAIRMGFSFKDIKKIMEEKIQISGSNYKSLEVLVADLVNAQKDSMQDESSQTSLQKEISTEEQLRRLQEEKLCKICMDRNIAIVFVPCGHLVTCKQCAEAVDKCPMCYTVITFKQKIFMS
Method: ^35S-methionine labeled mutant and wild type DIAP1, or wild type XIAP were generated in an in vitro transcription-translation system (Promega) from diap1-pET14b, diap1^21-4S pET14b and xiap pcDNA3.1 plasmids. For purification of His-UBCD1 and His-UBCH5C, ubcD1-pET14b and ubcH5C-pT7-7 were expressed in BL21 (pLysS) and purified on a Ni-column according to the manufacturer's protocol (Novagen). In vitro ubiquitination assays were carried out in a total volume of 12.5 μl and contained: ^35S-methionine labeled wild type or mutant DIAP1 or Wild type XIAP (approximately 10,000 cpm), and 250ng E1 (made in baculovirus; vector is the kind gift of Dr. Kazuhiro Iwai, University of Osaka, Osaka, Japan). Unless otherwise stated, 1.2 μg His-UBCD1 or His-UBCH5C was used in each reaction. Reaction mixture contained also 40 mM Tris-HCl, pH 7.6, 5 mM MgCl2, 1 mM DTT, 5 μg ubiquitin, 100 ng Ubiquitin-aldehyde, 2 mM ATPγS [Adenosine 5′-O-(3-thiotriphosphate)]. Reactions were incubated for 50 min at 37° C., and resolved, following addition of a sample buffer on SDS-PAGE (10%). Gels were dried and proteins visualized via Phosphorimaging (Fuji, Japan).

DIAP1 = biological target: T2, DIAP1 (Drosophila melanogaster, UniProt Q24306); assay: In vitro ubiquitination / self-conjugation reaction with 35S-labeled DIAP1; format: biochemical; conditions: 35S-DIAP1 with E1, UBCD1 and ubiquitin; SDS-PAGE; FIG. 13-15A
T2 construct: The full length ORF of diap1 was subcloned into the BamH1 site of pET14b (Novagen); His (N); host or cells: cell-free in vitro transcription-translation (reticulocyte lysate); the partner His-UBCD1 was made in E. coli BL21 (pLysS)
T2 sequence (Q24306 1-438): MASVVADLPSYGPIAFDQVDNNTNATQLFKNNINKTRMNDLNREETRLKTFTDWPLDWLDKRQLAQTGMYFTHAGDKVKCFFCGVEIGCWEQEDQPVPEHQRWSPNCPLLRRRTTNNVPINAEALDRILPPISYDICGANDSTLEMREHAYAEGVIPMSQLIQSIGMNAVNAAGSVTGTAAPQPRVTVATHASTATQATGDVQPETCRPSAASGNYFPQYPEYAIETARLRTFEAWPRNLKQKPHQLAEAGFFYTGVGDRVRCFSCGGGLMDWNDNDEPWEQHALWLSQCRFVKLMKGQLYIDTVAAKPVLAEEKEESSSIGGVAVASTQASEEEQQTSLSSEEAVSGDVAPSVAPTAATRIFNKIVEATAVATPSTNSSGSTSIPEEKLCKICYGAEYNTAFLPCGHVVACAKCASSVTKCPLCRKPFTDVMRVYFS
Method: ^35S-methionine labeled mutant and wild type DIAP1, or wild type XIAP were generated in an in vitro transcription-translation system (Promega) from diap1-pET14b, diap1^21-4S pET14b and xiap pcDNA3.1 plasmids. For purification of His-UBCD1 and His-UBCH5C, ubcD1-pET14b and ubcH5C-pT7-7 were expressed in BL21 (pLysS) and purified on a Ni-column according to the manufacturer's protocol (Novagen). In vitro ubiquitination assays were carried out in a total volume of 12.5 μl and contained: ^35S-methionine labeled wild type or mutant DIAP1 or Wild type XIAP (approximately 10,000 cpm), and 250ng E1 (made in baculovirus; vector is the kind gift of Dr. Kazuhiro Iwai, University of Osaka, Osaka, Japan). […]
In order to determine whether both amino acid consensus sequences described above are essential for IAP degradation, peptides were generated, with amino acid sequences as described in Tables 1, 3 and 5 above, containing one of each amino acid consensus sequence, or both, and their ability to stimulate in vitro IAP ubiquitination was assessed (FIG. 13). ^35S-methionine labeled wild type DIAP1 was incubated with 250 ng E1 and ubiquitin, with or without the addition of the RPR wild type protein, or peptides containing the RHG amino acid consensus sequence of the RPR HID or GRIM proteins, and the reaction products were resolved by SDS-PAGE.

Molecule	stimulation of XIAP auto-ubiquitination / self-conjugation in vitro (human XIAP)	stimulation of IAP (DIAP1) self-conjugation / auto-ubiquitination in vitro (DIAP1)
AVAFYIPDQATLLR QWRFLATVVL (AVAFYIPDQATLLRQWRFLATVVL; Drosophila melanogaster) [Peptide R15W, Reaper RHG plus Trp-box peptide]	greatest effect	–
AVPFYLPE QWRFLATVVL (AVPFYLPEQWRFLATVVL; Drosophila melanogaster) [Peptide H9-W, Hid RHG plus Reaper Trp-box peptide]	greatest effect	–
B1	strongly stimulated	resulted in auto-ubiquitination

From patent publication US7507788B2, “Peptides and methods for cell death regulation” (Rappaport Family Institute for Research in the Medical …, priority 2002, dated 2009)
